Experimental data published in patent US20130130985A1 (published 2013).
Bridges are numbered along the chain shown (N, C = ends). Where no end group is shown, it is not given here. [ ]: non-standard residue; d: D form. Sec = N[C@@H](C[SeH])C(=O)O

T1: human oxytocin receptor (human, UniProt P30559 1-389)
T1 sequence (looked up): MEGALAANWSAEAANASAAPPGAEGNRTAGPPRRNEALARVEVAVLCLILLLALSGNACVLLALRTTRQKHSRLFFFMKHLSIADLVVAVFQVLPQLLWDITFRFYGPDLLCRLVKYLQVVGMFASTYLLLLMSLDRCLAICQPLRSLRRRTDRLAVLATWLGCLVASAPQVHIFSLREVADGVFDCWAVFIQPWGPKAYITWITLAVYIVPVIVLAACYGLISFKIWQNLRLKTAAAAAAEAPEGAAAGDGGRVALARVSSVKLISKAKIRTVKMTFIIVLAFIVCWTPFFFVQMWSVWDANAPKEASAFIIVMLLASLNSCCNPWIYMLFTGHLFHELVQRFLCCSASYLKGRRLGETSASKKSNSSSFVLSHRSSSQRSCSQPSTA

T2: human vasopressin V1b receptor (human, UniProt P47901 1-424)
T2 sequence (looked up): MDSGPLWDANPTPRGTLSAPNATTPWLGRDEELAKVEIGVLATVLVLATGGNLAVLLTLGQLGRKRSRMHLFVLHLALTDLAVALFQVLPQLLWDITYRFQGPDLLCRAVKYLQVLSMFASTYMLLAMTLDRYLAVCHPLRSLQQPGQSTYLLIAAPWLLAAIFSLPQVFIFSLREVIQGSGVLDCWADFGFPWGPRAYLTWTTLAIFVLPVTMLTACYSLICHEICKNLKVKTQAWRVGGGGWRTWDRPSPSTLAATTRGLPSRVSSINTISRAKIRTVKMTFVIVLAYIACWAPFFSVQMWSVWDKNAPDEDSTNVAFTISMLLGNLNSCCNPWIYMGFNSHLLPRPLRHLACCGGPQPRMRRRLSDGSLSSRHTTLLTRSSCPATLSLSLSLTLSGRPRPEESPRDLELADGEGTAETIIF


Experiments:
[1] = biological target: T3, human vasopressin V1a receptor (human, UniProt P37288 1-418); test: cell-based or functional assay
[2] = biological target: T3, human vasopressin V1a receptor; test: cell-based or functional assay; remark: listed apart in the source
[3] = biological target: T1, human oxytocin receptor; test: cell-based or functional assay
[4] = biological target: T2, human vasopressin V1b receptor; test: cell-based or functional assay
[5] = biological target: T1, human oxytocin receptor; test: cell-based or functional assay; remark: listed apart in the source
[6] = biological target: human vasopressin V2 receptor (human, UniProt P30518 1-371); test: cell-based or functional assay
[7] = biological target: T2, human vasopressin V1b receptor; test: cell-based or functional assay; remark: listed apart in the source
[8] = biological target: T1, human oxytocin receptor; test: radioligand displacement (3H-OT), SPA beads, COS-1 membranes

T3 sequence (P37288 whole entry): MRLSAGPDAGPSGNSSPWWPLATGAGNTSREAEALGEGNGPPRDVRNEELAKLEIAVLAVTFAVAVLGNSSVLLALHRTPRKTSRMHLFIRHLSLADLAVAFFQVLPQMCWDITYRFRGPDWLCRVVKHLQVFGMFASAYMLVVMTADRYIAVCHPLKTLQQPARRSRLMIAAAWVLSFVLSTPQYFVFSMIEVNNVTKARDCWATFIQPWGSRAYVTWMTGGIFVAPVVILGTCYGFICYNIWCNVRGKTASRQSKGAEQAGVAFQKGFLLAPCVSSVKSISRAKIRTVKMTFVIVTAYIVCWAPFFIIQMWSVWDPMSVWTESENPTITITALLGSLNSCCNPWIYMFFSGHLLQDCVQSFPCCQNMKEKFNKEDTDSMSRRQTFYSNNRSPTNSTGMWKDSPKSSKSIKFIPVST

| Binder | Emax, IP-One HTRF assay [1] | Emax, FLIPR calcium assay [2] | Emax, IP-One HTRF assay [3] | Emax, FLIPR calcium assay [4] | Emax, FLIPR calcium assay [5] | Emax, cAMP accumulation assay [6] | Emax, IP-One HTRF assay [7] | EC50, FLIPR calcium assay [2] | IC50 [8] | EC50, cAMP accumulation assay [6] | EC50, IP-One HTRF assay [1] |
| --- | --- | --- | --- | --- | --- | --- | --- | --- | --- | --- | --- |
| [Sec]YIQNCPLG-NH2 (bridge 1-6 via selenosulfide) [[C1U]-OT] | 96% | 90% | 84% | 82% | 85% | – | – | – | – | – | – |
| XYIQNXPLG (by its name: desaminoselenocysteine (3-selenopropanoic acid) at position 1, L-selenocysteine at position 6, diselenide bridge; free C-terminal carboxylic acid; structure is not given) [d[C1,6U]-OT-OH] | – | – | 71% | 58% | 49% | 135% | 63% | > 100000 nM | – | – | – |
| XYIQNXPLG (L-selenocysteine at positions 1 and 6, diselenide bridge; free C-terminal carboxylic acid, also called [Se-Se]-OT-OH) [[C1,6U]-OT-OH] | – | – | 60% | – | 38% | 114% | – | > 100000 nM | 1280 nM | 495 nM | > 100000 nM |

Other lines, results leading:

| Emax, IP-One HTRF assay [1] | Emax, FLIPR calcium assay [2] | Emax, IP-One HTRF assay [3] | Emax, FLIPR calcium assay [4] | Emax, FLIPR calcium assay [5] | Emax, cAMP accumulation assay [6] | Emax, IP-One HTRF assay [7] | EC50, FLIPR calcium assay [2] | IC50 [8] | EC50, cAMP accumulation assay [6] | EC50, IP-One HTRF assay [1] | Binder |
| --- | --- | --- | --- | --- | --- | --- | --- | --- | --- | --- | --- |
| 79% | 71% | – | – | – | – | – | – | – | – | – | CYIQNCPLX (C-terminal amide; Cys1 and Cys6 form the cyclic part (disulfide)) [Oxytocin] |
| 67% | 104% | 55% | 73% | 82% | – | – | – | – | – | – | CYIQN[Sec]PLG-NH2 (bridge 1-6; also: selenosulfide bond) [[C6U]-OT] |
| 77% | – | – | – | – | – | – | – | – | – | – | CYIQNCPLG-OH (disulfide 1-6) [[S-S]-OT-OH] |
